The nanobody polyreactivity screen of Harvey et al. (2022)

Experiment: yeast display, Sf9 membrane polyspecificity reagent, FACS + sequencing; frameworks hold sequencing errors
Method in brief: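 Using colony PCR, genes from sorted yeast display clones were amplified, then sequenced on MiSeq at 2 × 250 and filtered by CDR length. The clones had been stained with 10% biotinylated, detergent-solubilized Sf9 membrane reagent for 1 hour at 4 °C and sorted by FACS into low and high (top ~1%) gates on anti-HA and streptavidin fluorescence. Polyreactivity labels come from the gate of origin.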

Sequence | polyreactivity (PSR sort gate)
QVQLVESGGGLVQAGGRLRLSCAASGIIIDYYTMGWYRQAPGKERELVAAINKSGGSTYADSVKGRFTISRDNAKNTVYLQMNSLKPEDTAVYYCAAEVDYSYWPEYARKYYYWGQGTQVTVSS | low polyreactivity
QVQLVESGGGLVQAGGRLRLSCAASGITFYSYAMGRYRQAPGKERELVAAISTTVGSTYYADYVKGRFTISRDNPNNTVYLQMNSLKPEDTAVYYCNSYSVYAWIEYNYWGQGTQVTVSS | low polyreactivity
QVQLVESGGGLVQAGGRLRLSCAASGITISGNAMGWYRQAPGKERELDAAISGRGGSTYYADSVKGRFTISRDNAKNTVYLQMNSLIPEDTAVFYCAARVPSPYVATYYYWGQGSQVTVSS | high polyreactivity
QVQLVESGGGLVQAGGRLRLSCAASGLIFDYYAMGWYRQAPGKERELVAAISYSGGRTYYADSVKCRFTISRDNAKNTVYLQMNSLKPEDTAVYYCNKVVLQPVIVDHDYWGQGTQVTVSS | low polyreactivity
QVQLVESGGGLVQAGGRLRLSCAASGLIFGANTMGWYSQAPGKERELVAAITSSGGSTYYADSVKGRFTISRDNAKNTVYLQMNSLKPEDTAVYFCNDRSWYPYDYWGQGTQVTVSS | low polyreactivity
QVQLVESGGGLVQAGGRLRLSCAASGLIFRTYTMVWYRQAPGKERELVATITRRGGTTYYADSVKGRFTISRDNAKNTVYLQMNSLKPEDTAVYYCAAKSAYHGLVGGYYYWGQGTQVTVSS | high polyreactivity
QVQLVESGGGLVQAGGRLRLSCAASGLIFSVYVMGGYRQAPGKERELVAGITTGGSTKYADSVKGRFTISRDNAKNTVYLEMNSLKPEDTAVYYCAVGKYNYRGSWDYYWGQGTQVTVSS | high polyreactivity
QVQLVESGGGLVQAGGRLRLSCAASGLTFAKYSMGWYRQAPGTERELVAAITASGASTYYADSVKGRFTISRDNAKNTVYLQMNSLKPEDTAVYYCAVRRYYNDYWGQGSQVTVSS | low polyreactivity
QVQLVESGGGLVQAGGRLRLSCAASGLTFGWYTMGWYRQAPGKERELVADITWSGGSTYYADSVKGRFTISRDNAKNTVYLQMNSLKPEDTAVYYCNKVWFYLEYGFSILYDYWGQGTQVTVSS | low polyreactivity
QVQLVESGGGLVQAGGRLRLSCAASGLTFLPNAMGWYRQAPGKERELVAAISWSDVRTYYADSVKGRFTISRDNAKNTVYLQMNSLKPEDTAVYYCAAEIYDLPEGDYWGQGTQVTVSS | high polyreactivity
QVQLVESGGGLVQAGGRLRLSCAASGLTFTYYAMGWYRQAPGKERELVATISWSGGTTYADSVKGRFTISRDNAKNTVYLQMNSLKPEDTAVYYCAADHPLYRRYDYWGQGTQVTVSS | high polyreactivity
QVQLVESGGGLVQAGGRLRLSCAASGRIFGINVMGWYRQAPGKERELVARITGRGGRTYYADSVKGRFTISRDNAKNTVYLQMNSLKPEDTAVYYCAADASYEAYDYWGQGTQVTVSS | high polyreactivity
QVQLVESGGGLVQAGGRLRLSCAASGRIFNIYAMGWYRQAPGKERELVAAISGSGGRTSYADSVKGRFTISRDNAKNTVYLQMNSLKPEDTAVYYCAADYSYYTSFRYDYWGQGTQVTVSS | low polyreactivity
QVQLVESGGGLVQAGGRLRLSCAASGRIFPRYVMGWYRQAHGKERELVAAITYRGGSTSYADSVKGRFTISRDNAKNTVYLQMNSLKPEDTAVYYCNAYRRAGRTVGTTRRYYYLGQGTQVTVSS | high polyreactivity
QVQLVESGGGLVQAGGRLRLSCAASGRIFPVYTMGWYRQAPGKERELVAAISGNGASTYYADSVKGRFTISRDNAKNTVYLQMNSLKPEDTAVYYCAAYFYYWGSTFVRYEYWGQGTQVTVSS | high polyreactivity
QVQLVESGGGLVQAGGRLRLSCAASGRIFVYYAMGWYRQAPGKERELVAAINSSGGRTYYADSVKGRFTISRDNAKNTVYLQMNSLKPEDTAVYYCAARKYSYPVAAHYYWGQGTQVTVSS | high polyreactivity

Sequence | polyreactivity (PSR sort gate)
QVQLVESGGGLVQAGGRLRLSCAASGRTFDRYAMGWYRQAPGKERELVAAITWSGGRTYYADSVKGRFTISRDNAKKTVYLQMNSLKPEDTAVYYCAADNSYRGYHSPYDYWGQGTQVTVSS | low polyreactivity
QVQLVESGGGLVQAGGRLRLSCAASGRTFFRYVMGWYRQAPGKERELVAAISRSGGSTYYADSVKGRFTISRDNAKNTVYLQMNSLKPEATAVFYCNTVARSTVVPTEFDYWGQGTQVTVSS | high polyreactivity
QVQLVESGGGLVQAGGRLRLSCAASGRTFPYYVMGWYRQAPGKERELVAVIRWRGGSTYYADSVKGRFTISRDNAKNTVYLQMNSLKPEDTAVYYCAARRHIVVATYDRRYDYWGQGTQVTVSS | low polyreactivity
QVQLVESGGGLVQAGGRLRLSCAASGRTFSKYPLGWYRQAPGKERELVAAITSGGGTYYADSVKGRFTFSRDNAKNPVYLQMHSRKPEDTAVYYCAVSGTTVSTYDYWGQCTQVTVSS | low polyreactivity
QVQLVESGGGLVQAGGRLRLSCAASGRTFVYNALGWYRQAPGKERELVAAISQSGGSTYYADSVKGRFTISRDNAKITVYFQMNSLKPEDTAVYYCADRYKTGSYVRYNFWGQGTQVTVSS | high polyreactivity
QVQLVESGGGLVQAGGRLRLSCAASGRTFYGYAMGWYRQAPGKEREMVAAITQRGVSTYADSVKGRFTISRDNAKNTVYLQMNSLKQEDTAVYYCAADQIERFRDQTWDFDYWGQGTQVTVSS | low polyreactivity
QVQLVESGGGLVQAGGRLRLSCAASGSFFGGSGMGWYRQAPGKERELVAAITSGSSTYYADSVNGRFTISRDNAKNTVYLQMNSLKPEDSAVYYCAARPYPHSAYEGDYWGRGTQVTVSS | low polyreactivity
QVQLVESGGGLVQAGGRLRLSCAASGSIFAGYAMGWYRQAPGKERELVAAITSSCGSTYYADSVKGRFTISRDNAKNTVYLQMNSLNPEDTAVYYCAKDKLIFYRVGSDYWGQGTQVTVSS | low polyreactivity
QVQLVESGGGLVQAGGRLRLSCAASGSIFCVNAMGWSRQAPGKERELVATITGSSGITYYADSVKGRFTISRVNAKNTVYLQMNSVKPEDTAVYYCAAVLLKFAYNYNYWGQGTQVTVSS | low polyreactivity
QVQLVESGGGLVQAGGRLRLSCAASGSIFGANTMVWYRQAPGKERELVAAISSGGNTYYADSVKGRFTISRDNAKNTVYLQMNSLKPEDTAVYYCNAQTRYRYQYGYLGGTGYNYWGQGTQVTVSS | low polyreactivity
QVQLVESGGGLVQAGGRLRLSCAASGSIFGRYAMGRYRQAPGKERELVAAITWSATSTYYADYVKGRFTISRDNAKNTVYLQMNSLKPEDTAVYYCAVRTPRARYTYGSWGQGTQVTVSS | high polyreactivity
QVQLVESGGGLVQAGGRLRLSCAASGSIFLFYAMGWYRKAPVKERELVARITSSGGTTYYADSVKGRFTISRDNAKNTVYLQMNSLKPEDTAVYYCAASYFIYHYDFDYWGQGTQVTVSS | high polyreactivity
QVQLVESGGGLVQAGGRLRLSCAASGSIFNYYARGWYRQAPGKERELVAAIPTSGGNPYYADSVKGRFTISRDNAKNTVKLQMNSLKPEDTALYNCAADYWASGGEYDYWGQGTQVTVSS | low polyreactivity
QVQLVESGGGLVQAGGRLRLSCAASGSIFQKNAMGWYRQAPGKERELVAVITRGGTSTYYADSVKGRFTISRDNAKNTVYLQMNSLKTEDTAVYYCAAKADKRLDYWGQGTQVTVSS | low polyreactivity
QVQLVESGGGLVQAGGRLRLSCAASGSIFRYYDMGWYRQATGKEREFVAAISYRGGTTYYADSVKGRFTISRDNAKNTVYLQMNSLKPEDTAVYYCAKETYRSSSYDWYDYWGQGTQVTVSS | low polyreactivity
